Substrate in data set [1]: O=C(O)CCC(=O)C(=O)O
Kind of data set: purified protein. To be noted: co-substrate L-Orn, 60 nM enzyme, 50 mM Hepes, pH 8.0, 150 mM NaCl, 100 μM PLP, 25 °C. It counts as biochemical, Homo sapiens.

Substrate in data set [2]: NCCC[C@H](N)C(=O)O
Kind of data set: purified protein. To be noted: co-substrate α-KG, 60 nM enzyme, 50 mM Hepes, pH 8.0, 150 mM NaCl, 100 μM PLP, 25 °C.

B1: hOAT (human ornithine δ-aminotransferase) (Homo sapiens; R217A) (protein)
chain: TSVATKKTVQGPPTSDDIFEREYKYGAHNYHPLPVALERGKGIYLWDVEGRKYFDFLSSYSAVNQGHCHPKIVNALKSQVDKLTLTSRAFYNNVLGEYEEYITKLFNYHKVLPMNTGVEAGETACKLARKWGYTVKGIQKYKAKIVFAAGNFWGRTLSAISSSTDPTSYDGFGPFMPGFDIIPYNDLPALEAALQDPNVAAFMVEPIQGEAGVVVPDPGYLMGVRELCTRHQVLFIADEIQTGLARTGRWLAVDYENVRPDIVLLGKALSGGLYPVSAVLCDDDIMLTIKPGEHGSTYGGNPLGCRVAIAALEVLEEENLAENADKLGIILRNELMKLPSDVVTAVRGKGLLNAIVIKETKDWDAWKVCLRLRDNGLLAKPTHGDIIRFAPPLVIKEDELRESIEIINKTILSF
notes: untagged, pET43a, E. coli BL21(DE3)pLysS; DEAE and Superdex 200; tetramer in equilibrium with dimer, dimer is the functional unit
Turning to B1, in “purified protein [1]”, the Km (commonly the substrate concentration at which the rate is half of its maximum) is given as 2.4 ± 0.1 mM and the kcat (usually the maximal rate divided by the concentration of active sites) is 38.1 ± 0.3 s⁻¹. For the same protein, in “purified protein [2]”, the Km was found to be 5.1 ± 0.3 mM and the kcat came to 38.4 ± 0.7 s⁻¹.

These data come from publication PMC5432616, “Oligomeric State and Thermal Stability of Apo- and Holo- Human Ornithine δ-Aminotransferase” (The Protein Journal, 2017).
